According to paper PMC3404464 (ACS medicinal chemistry letters, 2012):

Assays:
[1] = system: CO[C@@H]1O[C@H](CO)[C@@H](O[C@@H]2O[C@H](CO)[C@@H](O)[C@H](O)[C@H]2NC(C)=O)[C@H](O[C@H](C)C(=O)N[C@@H](C)C(=O)N[C@H](CCC(=O)N[C@@H](CCC[C@@H](N)C(=O)O)C(=O)N[C@H](C)C(=O)N[C@H](C)C(=O)O)C(=O)O)[C@H]1NC(C)=O; experiment: Turnover of synthetic substrates by NagZ; format: biochemical, Pseudomonas aeruginosa; conditions: other: substrate hydrolysis by NagZ
[2] = system: CC(=O)N[C@H]1[C@H](O[C@H]2[C@H](O[C@H](C)C(=O)N[C@@H](C)C(=O)N[C@H](CCC(=O)N[C@@H](CCC[C@@H](N)C(=O)O)C(=O)N[C@H](C)C(=O)N[C@H](C)C(=O)O)C(=O)O)[C@@H](NC(C)=O)[C@@H]3OC[C@H]2O3)O[C@H](CO)[C@@H](O)[C@@H]1O; experiment: Turnover of synthetic substrates by NagZ; format: biochemical, Pseudomonas aeruginosa; conditions: other: substrate hydrolysis by NagZ
[3] = target: lytic transglycosylase MltB of Escherichia coli (Escherichia coli, UniProt P41052); experiment: MltB binding by intrinsic tryptophan/tyrosine fluorescence; conditions: excitation 280 nm
lytic transglycosylase MltB of Escherichia coli, sequence (P41052 19-361): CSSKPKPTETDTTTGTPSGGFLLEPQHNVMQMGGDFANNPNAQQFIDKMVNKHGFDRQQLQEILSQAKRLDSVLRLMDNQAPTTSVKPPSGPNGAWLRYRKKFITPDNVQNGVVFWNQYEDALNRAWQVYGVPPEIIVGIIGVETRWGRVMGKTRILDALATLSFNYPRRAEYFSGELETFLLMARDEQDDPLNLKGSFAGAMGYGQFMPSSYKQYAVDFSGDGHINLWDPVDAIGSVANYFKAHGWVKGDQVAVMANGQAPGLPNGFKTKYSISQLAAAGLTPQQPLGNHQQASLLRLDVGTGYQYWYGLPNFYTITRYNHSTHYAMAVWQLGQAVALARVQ

Row | Molecule | Km [1] | kcat [1] | kcat/Km [1] | Km [2] | kcat [2] | kcat/Km [2] | kns (non-saturable, presumably non-specific binding mode) [3]
1 | NagZ of P. aeruginosa (Pseudomonas aeruginosa PAO1) | 165 ± 36 µM | 0.77 ± 0.04 s⁻¹ | (0.5 ± 0.1) × 10^4 M^−1s^−1 | 104 ± 2 µM | 6.6 ± 0.2 s⁻¹ | 6.3 ± 0.2 × 10^4 M^−1s^−1 | 
2 | CC(=O)N[C@H]1CN[C@H](CO)[C@@H](O)[C@@H]1O.Cl [compound 3, 2-acetamido-1,2-dideoxynojirimycin] |  |  |  |  |  |  | 0.128 ± 0.004 µM⁻¹
3 | CC(=O)N[C@H]1CN[C@H](CO)[C@@H](O)[C@@H]1O[C@H](C)C(=O)O.Cl [compound 4] |  |  |  |  |  |  | 0.060 ± 0.006 µM⁻¹
